Here are results for 20 molecules from patent US20160326228A1 (ACCELERON PHARMA, published 2016).

Assay [1] addresses T1, Growth and Differentiation Factor-11 (GDF11) (UniProt O95390 299-407).
T1 construct: also called BMP11
T1 sequence (looked up): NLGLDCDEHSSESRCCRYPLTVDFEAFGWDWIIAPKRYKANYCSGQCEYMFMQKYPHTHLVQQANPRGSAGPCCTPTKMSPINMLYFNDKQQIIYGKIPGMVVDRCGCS
The experiment in a line: BiaCore; receptor-Fc captured by anti-hFc antibody, ligand injected. As for the experimental part: (§1) Binding of certain ActRIIB-Fc proteins and GDF Traps to ligands was tested in a BiaCore™ assay.
(§2) The ActRIIB-Fc variants or wild-type protein were captured onto the system using an anti-hFc antibody. Ligands were injected and flowed over the captured receptor proteins.
For orientation: In SPR one partner is held on a chip, and binding of the other changes the refractive index at the surface.

In assay [2] the target is T2, Activin A (UniProt P08476 311-426).
T2 construct: also called ActA
T2 sequence (looked up): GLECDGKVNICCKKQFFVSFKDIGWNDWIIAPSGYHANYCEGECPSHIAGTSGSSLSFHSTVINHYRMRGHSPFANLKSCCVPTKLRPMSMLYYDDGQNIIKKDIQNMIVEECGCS
The assay is described as above. How it is done: as §1, §2

Assay [3] deals with T3, Growth and Differentiation Factor-8 (GDF8) (UniProt O14793 267-375).
T3 construct: also called myostatin
T3 sequence (looked up): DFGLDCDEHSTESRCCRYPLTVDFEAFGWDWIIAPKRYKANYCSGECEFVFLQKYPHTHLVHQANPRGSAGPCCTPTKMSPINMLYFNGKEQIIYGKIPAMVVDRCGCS
Described as above. As for the experimental part:
as §1, §2

For assay [4], the target named is T1, Growth and Differentiation Factor-11 …. The experiment in a line: BiaCore; ligand coupled, receptor flowed over.
The target in assay [5] is T2, Activin A. The experiment in a line: BiaCore; ligand coupled, receptor flowed over.

B1: ActRIIB(A24N 20-134)-hFc (Fc fusion)
chain: GRGENETRECIYYNANWELERTNQSGLERCEGEQDKRLHCYASWRNSSGTIELVKKGCWLDDFNCYDRQECVATEENPQVYFCCCEGNFCNERFTHLPEAGGPEVTYEPPPTAPT
notes: also called A24N variant; not shown: linker (if any) and human Fc (hFc)
As a reminder, the Kd is the constant that tells how readily two partners part at equilibrium. Lower therefore signals tighter binding. For orientation: koff means the first-order rate constant of dissociation. Lower therefore signals a long-lived complex. The term kon denotes the second-order rate constant of association. A low value points to slow association. In assay [1], B1 returned a Kd of 0.0519 nM and a koff of 6.35e-05 s⁻¹. In the assay with Activin A [2], binding was put at a Kd of 0.104 nM, the koff was 0.000346 s⁻¹ and the kon was determined as 3.34e+06 M⁻¹ s⁻¹.

B2: ActRIIB(K74A 20-134)-hFc (Fc fusion)
chain: GRGEAETRECIYYNANWELERTNQSGLERCEGEQDKRLHCYASWRNSSGTIELVAKGCWLDDFNCYDRQECVATEENPQVYFCCCEGNFCNERFTHLPEAGGPEVTYEPPPTAPT
notes: not shown: linker (if any) and human Fc (hFc)
As to B2, in assay [3], the Kd was determined as 0.0718 nM and the koff was 2.03e-05 s⁻¹.

B3: ActRIIB(P129S, P130R 20-134)-hFc (Fc fusion)
chain: GRGEAETRECIYYNANWELERTNQSGLERCEGEQDKRLHCYASWRNSSGTIELVKKGCWLDDFNCYDRQECVATEENPQVYFCCCEGNFCNERFTHLPEAGGPEVTYEPSRTAPT
notes: T0017 prints a P129S P130A variant; kept as a separate molecule; not shown: linker (if any) and human Fc (hFc)
In assay [3], B3 had a Kd of 1.67 nM and a koff of 0.00018 s⁻¹. Moreover, in the assay with Activin A [2], the Kd was determined as 0.0831 nM, the koff is 0.000417 s⁻¹ and the kon is 5.02e+06 M⁻¹ s⁻¹.

B4: Soluble ActRIIB-Fc variant D54A (Fc fusion)
chain: GRGEAETRECIYYNANWELERTNQSGLERCEGEQAKRLHCYASWANSSGTIELVKKGCWLDDFNCYDRQECVATEENPQVYFCCCEGNFCNERFTHLPEA
notes: whole entry named; not shown: linker (if any) and Fc
As for B4, the binding result in assay [4] was “no binding”.

B5: Soluble ActRIIB-Fc variant D80K (Fc fusion)
chain: GRGEAETRECIYYNANWELERTNQSGLERCEGEQDKRLHCYASWANSSGTIELVKKGCWLKDFNCYDRQECVATEENPQVYFCCCEGNFCNERFTHLPEA
notes: as for B4
Take B5: the binding result (in assay [4]; with Activin A [5]) was “no binding” throughout.

B6: Soluble ActRIIB-Fc variant D80A (Fc fusion)
chain: GRGEAETRECIYYNANWELERTNQSGLERCEGEQDKRLHCYASWANSSGTIELVKKGCWLADFNCYDRQECVATEENPQVYFCCCEGNFCNERFTHLPEA
notes: as for B4
On to B6, for which the binding result (in assay [4]; in the assay with Activin A [5]) was “no binding” each time.

B7: Soluble ActRIIB-Fc variant R56A (Fc fusion)
chain: GRGEAETRECIYYNANWELERTNQSGLERCEGEQDKALHCYASWANSSGTIELVKKGCWLDDFNCYDRQECVATEENPQVYFCCCEGNFCNERFTHLPEA
notes: as for B4
Consider B7, for which the binding result (in assay [4]; with Activin A [5]) was “no binding” in each case.

B8: Soluble ActRIIB-Fc variant W78A (Fc fusion)
chain: GRGEAETRECIYYNANWELERTNQSGLERCEGEQDKRLHCYASWANSSGTIELVKKGCALDDFNCYDRQECVATEENPQVYFCCCEGNFCNERFTHLPEA
notes: as for B4
On to B8, for which the binding result (in assay [4]; in the assay with Activin A [5]) was “no binding” in each case.

B9: Soluble ActRIIB-Fc variant K55A (Fc fusion)
chain: GRGEAETRECIYYNANWELERTNQSGLERCEGEQDARLHCYASWANSSGTIELVKKGCWLDDFNCYDRQECVATEENPQVYFCCCEGNFCNERFTHLPEA
notes: as for B4
In the case of B9, the binding result in assay [4] was “no binding”.

B10: Soluble ActRIIB-Fc variant E37A (Fc fusion)
chain: GRGEAETRECIYYNANWALERTNQSGLERCEGEQDKRLHCYASWANSSGTIELVKKGCWLDDFNCYDRQECVATEENPQVYFCCCEGNFCNERFTHLPEA
notes: as for B4
As for B10, the binding result (in assay [4]; with Activin A [5]) was “no binding” in each case.

B11: Soluble ActRIIB-Fc variant D80F (Fc fusion)
chain: GRGEAETRECIYYNANWELERTNQSGLERCEGEQDKRLHCYASWANSSGTIELVKKGCWLFDFNCYDRQECVATEENPQVYFCCCEGNFCNERFTHLPEA
notes: as for B4
B11: the binding result (in assay [4]; in the assay with Activin A [5]) was “no binding” throughout.

B12: Soluble ActRIIB-Fc variant D80R (Fc fusion)
chain: GRGEAETRECIYYNANWELERTNQSGLERCEGEQDKRLHCYASWANSSGTIELVKKGCWLRDFNCYDRQECVATEENPQVYFCCCEGNFCNERFTHLPEA
notes: as for B4
In the case of B12, the binding result (in assay [4]; with Activin A [5]) was “no binding” throughout.

B13: Soluble ActRIIB-Fc variant D80G (Fc fusion)
chain: GRGEAETRECIYYNANWELERTNQSGLERCEGEQDKRLHCYASWANSSGTIELVKKGCWLGDFNCYDRQECVATEENPQVYFCCCEGNFCNERFTHLPEA
notes: as for B4
Consider B13, for which the binding result (in assay [4]; with Activin A [5]) was “no binding” each time.

B14: Soluble ActRIIB-Fc variant K74A (Fc fusion)
chain: GRGEAETRECIYYNANWELERTNQSGLERCEGEQDKRLHCYASWANSSGTIELVAKGCWLDDFNCYDRQECVATEENPQVYFCCCEGNFCNERFTHLPEA
notes: as for B4
As to B14, the results for the Kd (in assay [4]; with Activin A [5]) were 5.3 nM and 4.35 nM, respectively.

B15: Soluble ActRIIB-Fc variant L79A (Fc fusion)
chain: GRGEAETRECIYYNANWELERTNQSGLERCEGEQDKRLHCYASWANSSGTIELVKKGCWADDFNCYDRQECVATEENPQVYFCCCEGNFCNERFTHLPEA
notes: as for B4
As for B15, the binding result in assay [4] is “no binding”.

B16: Soluble ActRIIB-Fc variant D80N (Fc fusion)
chain: GRGEAETRECIYYNANWELERTNQSGLERCEGEQDKRLHCYASWANSSGTIELVKKGCWLNDFNCYDRQECVATEENPQVYFCCCEGNFCNERFTHLPEA
notes: as for B4
Regarding B16, the binding result (in assay [4]; with Activin A [5]) was “no binding” each time.

B17: Soluble ActRIIB-Fc variant D80M (Fc fusion)
chain: GRGEAETRECIYYNANWELERTNQSGLERCEGEQDKRLHCYASWANSSGTIELVKKGCWLMDFNCYDRQECVATEENPQVYFCCCEGNFCNERFTHLPEA
notes: as for B4
Take B17: the binding result (in assay [4]; in the assay with Activin A [5]) was “no binding” in each case.

B18: ActRIIB(R64K 20-129)-hFc (Fc fusion)
chain: GRGEAETRECIYYNANWELERTNQSGLERCEGEQDKRLHCYASWKNSSGTIELVKKGCWLDDFNCYDRQECVATEENPQVYFCCCEGNFCNERFTHLPEAGGPEVTYEPP
notes: as for B2
In assay [3], B18 gave an equilibrium dissociation constant (Kd) of 2.15 nM and a koff of 0.000209 s⁻¹. In the assay with Activin A [2], this molecule showed an equilibrium dissociation constant (Kd) of 0.0841 nM, a koff of 0.000628 s⁻¹ and a kon of 7.46e+06 M⁻¹ s⁻¹.

B19: ActRIIB(L79E 20-134)-hFc (Fc fusion)
chain: GRGEAETRECIYYNANWELERTNQSGLERCEGEQDKRLHCYASWRNSSGTIELVKKGCWEDDFNCYDRQECVATEENPQVYFCCCEGNFCNERFTHLPEAGGPEVTYEPPPTAPTGGGTHTCPPCPAPELLGGPSVFLFPPKPKDTLMISRTPEVTCVVVDVSHEDPEVKFNWYVDGVEVHNAKTKPREEQYNSTYRVVSVLTVLHQDWLNGKEYKCKVSNKALPVPIEKTISKAKGQPREPQVYTLPPSREEMTKNQVSLTCLVKGFYPSDIAVEWESNGQPENNYKTTPPVLDSDGSFFLYSKLTVDKSRWQQGNVFSCSVMHEALHNHYTQKSLSLSPGK
As for B19, in assay [1], binding was put at a Kd of 0.716 nM and the koff is 0.000274 s⁻¹. In assay [3], this molecule yielded a dissociation constant (Kd) of 2.41 nM and a koff of 0.0009 s⁻¹.

B20: Soluble ActRIIB-Fc WT (64A) (Fc fusion, UniProt Q13705 19-119, looked up)
chain: SGRGEAETRECIYYNANWELERTNQSGLERCEGEQDKRLHCYASWANSSGTIELVKKGCWLDDFNCYDRQECVATEENPQVYFCCCEGNFCNERFTHLPEA
notes: as for B4
For B20, the Kd was 260 nM in assay [4] and 180 nM with Activin A [5].
